Results as given in patent US20260137799A1, “ANTI-MUC1* ANTIBODY DRUG COMPLEXES AND USES THEREOF” (Minerva Biotechnologies Corporation, priority 2023, published 2026).

Key:
DU-145 [1] = experiment: xCELLigence impedance cytotoxicity, DU-145; type: cell-based, human; settings: 40-120 hours incubation
Procedure: (§1) An xCELLigence RTCA MP Instrument (Agilent) was used to assess real-time killing of target cancer cells). In the xCELLigence system, target cancer cells, which are adherent, are plated onto electrode array 96-well plates. Adherent cells insulate the electrode and increase the impedance. The number of adherent cancer cells is directly proportional to impedance. […] Therefore, increasing impedance reflects the growth of the cancer cells and decreasing impedance reflects the killing of the cancer cells.
(§2) Target Cancer cells (Table 9) were seeded onto a multi-electrode well plate at a density of 5000 cells/well (100 μL of a 50,000 cells/mL stock) and incubated for 24 hr in a 37° C./5% CO2 incubator. ADCs were prepared as a 2× solution in corresponding growth media and 100 μL of each concentration was added to target cells. As a positive control (100% cell killing) cells were treated with either 1% triton or 1 μM Taxol instead of ADC. After 40-120 hours incubation in a 37° C./5% CO2 incubator cell killing was assessed. In this assay, impedance is measured in real-time. When the adherent cancer cells are killed and come off the electrode surface, impedance (insulation) decreases.

HPAFII-MUC1* = experiment: PrestoBlue live/dead cell assay, HPAFII-MUC1*; type: cell-based, human; settings: Presto Blue; 72-120 hour incubation
Procedure: (§3) Another method of measuring the killing activity of ADCs against target cancer cells is to use the PrestoBlue live/dead cell assay (ThermoFisher). Target cancer cells were seeded in a black-walled, clear-bottom 96-well tissue culture plate at a density of 5000 cells/well (100 μL of a 50,000 cells/mL stock) and incubated overnight in a 37° C./5% CO2 incubator. ADCs were prepared as a 2× solution in corresponding cancer cell growth media and 100 μL of each concentration was added to target cancer cells. As a positive control (100% killing) cancer cells were treated with 1 μM Taxol instead of ADC. After 72 hour-120 hour incubation in a 37° C./5% CO2 incubator, cell viability was measure by fluorescence using the PrestoBlue HS assay (ThermoFisher). Briefly, after the incubation period, 20 μL of PrestoBlue HS solution was added. Fluorescence (Ex 560 nm/Em 590 nm) was recorded after 30-90 min. incubation using a Tecan plate reader. Percentage viability was determined by PrestoBlue HS staining and normalized to 1 μM taxol treated cells.
(§4) The normalized fluorescence values were imported into the graph program, Sigma Plot, data plotted as ADC concentration versus normalized fluorescence signal and curve fitted using a four-parameter Hill equation: f=y0+a*x^b/(c^b+x^b) to calculate IC50 values. IC50 values for the ADCs were generally consistent between the xCELLigence and Presto Blue assays.

T47D [2] = experiment: PrestoBlue live/dead cell assay, T47D; type: cell-based, human; settings: Presto Blue; 72-120 hour incubation
Procedure: as §3, §4

HPAFII = experiment: PrestoBlue live/dead cell assay, HPAFII; type: cell-based, human; settings: Presto Blue; 72-120 hour incubation
Procedure: as §3, §4

DU-145 [3] = experiment: PrestoBlue live/dead cell assay, DU-145; type: cell-based, human; settings: Presto Blue; 72-120 hour incubation
Procedure: as §3, §4

T47D-MUC1* 15% [4] = experiment: PrestoBlue live/dead cell assay, T47D-MUC1* 15%; type: cell-based, human; settings: Presto Blue; 72-120 hour incubation
Procedure: as §3, §4

H1975 = experiment: PrestoBlue live/dead cell assay, H1975; type: cell-based, human; settings: Presto Blue; 72-120 hour incubation
Procedure: as §3, §4

HPAF-II = experiment: xCELLigence impedance cytotoxicity, HPAF-II; type: cell-based, human; settings: xCELLigence; 40-120 hours incubation; read-out: IC50, HPAF-II
Procedure: as §1, §2

T47D-MUC1* 15% [5] = experiment: xCELLigence impedance cytotoxicity, T47D-MUC1* 15%; type: cell-based, human; settings: 40-120 hours incubation
Procedure: as §1, §2

T47D [6] = experiment: xCELLigence impedance cytotoxicity, T47D; type: cell-based, human; settings: xCELLigence; 40-120 hours incubation; read-out: IC50, T47D
In short: (§5)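 Adherent target cells plated at 5000/well on electrode plates were grown 24 h, then exposed to serially diluted ADCs in growth medium at 37° C/5% CO2. Killing was followed as real-time impedance loss over 40-120 h, normalized to 1% triton or 1 μM Taxol as 100% kill.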

HPAF-II MUC1* = experiment: xCELLigence impedance cytotoxicity, HPAF-II MUC1*; type: cell-based, human; settings: xCELLigence; 40-120 hours incubation; read-out: IC50, HPAF-II MUC1*
Procedure: as §1, §2

NCI-H1975 = experiment: xCELLigence impedance cytotoxicity, NCI-H1975; type: cell-based, human; settings: xCELLigence; 40-120 hours incubation; read-out: IC50, NCI-H1975
In short: as §5

T47D xenograft tumors = experiment: T47D breast cancer xenograft; type: in vivo, NOD/SCID mice; settings: intraperitoneal; MMAE ADCs 5-10 mg/kg Days 7, 14, 20; deruxtecan/exatecan ADCs 20 mg/kg weekly x7
Procedure: (§6) For breast cancer xenografts, female NOD/SCID mice (weight 18-22 g, 6-8 weeks old, Charles River Laboratories) previously implanted with a 90-day release estrogen pellet (Innovative Research Laboratories) were subcutaneously injected under isoflurane anesthesia (ISOTHESIA, 250 ml (HENRY SCHEIN, NDC: 11695-6776-2) with one million luciferase-positive T47D breast cancer cells expressing low levels of MUC1*(ATCC) or one million luciferase-positive T47D-MUC1* cells overproducing MUC1* using a BD 26G Insulin Syringes with Detachable Needle (Fisher cat: 329652) or BD 28G Lo-Dose U-100 Insulin Syringes (Fisher cat: 329461).
(§7) Tumor volume was measured from bioluminescence images acquired with a Xenogen IVIS-Spectrum system (Perkin Elmer). Mice were injected […] into the scruff of the neck with 150 ul, 30 mg/mL, D-Luciferin (XenoLight™ D-Luciferin Potassium Salt; PerkinElmer P/N 122799), placed under isoflurane anesthesia, and photographed within 10 minutes of the Leciferin injection. Data was expressed graphically as Radiance (photons/sec) as a function of days post-tumor implantation.
(§8) Tumor mass was determined from tumors excised from mice receiving T47D cells on Day 95 and mice receiving T47D-MUC1* cells on Day 96. […]

[7] = tested on: T47D-MUC1* xenograft tumors; experiment: T47D-MUC1* breast cancer xenograft; type: in vivo, NOD/SCID mice; settings: intraperitoneal; MMAE ADCs 5-10 mg/kg Days 7, 14, 20; deruxtecan/exatecan ADCs 20 mg/kg weekly x7
Procedure: as §6, §7, §8

T47D-MUC1* [8] = experiment: PrestoBlue live/dead cell assay, T47D-MUC1*; type: cell-based, human; settings: Presto Blue; 72-120 hour incubation
Procedure: as §3, §4

T47D-MUC1* [9] = experiment: xCELLigence impedance cytotoxicity, T47D-MUC1*; type: cell-based, human; settings: xCELLigence; 40-120 hours incubation; read-out: IC50, T47D-MUC1*
Procedure: as §1, §2

B1: C2 MC-PEG8-VA-PAB exatecan (conjugate, listed as Mus sp.)
heavy: EVQLEESGGGLVKPGGSLKLSCAASGFTFSGYAMSWVRQTPEKRLEWVATISSGGTYIYYPDSVKGRFTISRDNAKNTLYLQMSSLRSEDTAMYYCARLGGDNYYEYFDVWGAGTTVTVSSAKTTPPSVYAKTTPPSVYPLAPGSAAQTNSMVTLGCLVKGYFPEPVTVTWNSGSLSSGVHTFPAVLQSDLYTLSSSVTVPSSTWPSETVTCNVAHPASSTKVDKKIVPRDCGCKPCICTVPEVSSVFIFPPKPKDVLTITLTPKVTCVVVDISKDDPEVQFSWFVDDVEVHTAQTQPREEQFNSTFRSVSELPIMHQDWLNGKEFKCRVNSAAFPAPIEKTISKTKGRPKAPQVYTIPPPKEQMAKDKVSLTCMITDFFPEDITVEWQWNGQPAENYKNTQPIMDTDGSYFVYSKLNVQKSNWEAGNTFTCSVLHEGLHNHHTEKSLSHSPGK
light: DIVITQSTASLGVSLGQRATISCRASKSVSTSGYSYMHWYQQRPGQPPKLLIYLASNLESGVPARFSGSGSGTDFTLNIHPVEEEDAATYYCQHSRELPFTFGGGTKLEIKRADAAPTVSADAAPTVSIFPPSSEQLTSGGASVVCFLNNFYPKDINVKWKIDGSERQNGVLNSWTDQDSKDSTYSMSSTLTLTKDEYERHNSYTCEATHKTSTSPIVKSFNRNEC
modifications: MC-PEG8-VA-PAB-exatecan
notes: ADC: antibody C2 conjugated via MC-PEG8-VA-PAB linker to exatecan
B1 was tested, and the IC50 (DU-145 [1]) was 163 nM, the IC50 (HPAFII-MUC1*) was 62 nM and the IC50 (T47D [2]) was 153 nM. For the same molecule, the IC50 (HPAFII) was 180 nM, the IC50 (DU-145 [3]) was 160 nM and the IC50 (T47D-MUC1* 15% [4]) was 25 nM. It also gave an IC50 (H1975) of 19 nM, an IC50 (HPAF-II) of 86 nM and an IC50 (T47D-MUC1* 15% [5]) of 20 nM. For the same molecule, the IC50 (T47D [6]) was 112 nM, the IC50 (HPAF-II MUC1*) was 72 nM and the IC50 (NCI-H1975) was 207 nM. For the same molecule, the “growth of T47D xenograft tumors” value (T47D xenograft tumors) was “inhibit the growth”, the “growth of T47D-MUC1* xenograft tumors” value [7] was “inhibit the growth” and the IC50 (T47D-MUC1* [8]) was 8 nM. It also gave an IC50 (T47D-MUC1* [9]) of 6.2 nM.
